Measured values reported in patent US12366576B2, “Compositions, assays, and methods for direct modulation of fatty acid metabolism” (Dana-Farber Cancer Institute, Inc., priority 2016, dated 2025).
Bridge positions count the residues as written; N and C are the ends. Square brackets hold non-standard residues; d marks the D form. Ends that are not written are not given here. S5 = C=CCCC[C@](C)(N)C(=O)O

Assays:
MCL-1ΔNΔC [1] = target: T1, MCL-1ΔNΔC (Homo sapiens, UniProt Q07820); test: 19F NMR binding study with fluorinated SAHB; settings: fluorinated SAHB 25 μM, MCL-1ΔNΔC 0-45 μM
T1 construct: The MCL-1ΔNΔC construct was grown and expressed in E. coli as previously described; made in house; host or cells: E. coli BL21(DE3)
T1 sequence (Q07820 172-320 limits assumed, stated change not applied): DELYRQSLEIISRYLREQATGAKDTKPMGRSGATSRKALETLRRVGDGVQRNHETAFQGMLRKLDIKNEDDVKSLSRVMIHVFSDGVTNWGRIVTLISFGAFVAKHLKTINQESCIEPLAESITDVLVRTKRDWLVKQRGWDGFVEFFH
Protocol: (§1) To measure the direct binding interaction, ^19F NMR binding studies were conducted using fluorinated analogs of MCL-1 SAHBD. […] Both SAHBs, however, bind MCL-1ΔNΔC, as illustrated by a chemical shift of the peptide NMR peak in both cases (FIG. 15). […] To perform these experiments, N-terminal Btn-PEG analogs of the peptides were immobilized onto streptavidin probes that were then placed into protein solutions at a variety of concentrations to measure ligand-target association.
MCL-1ΔNΔC. The MCL-1ΔNΔC construct was grown and expressed in E. coli as previously described (see, e.g., Stewart, Nat Chem Biol., 6(6):595-601 (2010)). Transformed BL21(DE3) E. coli were grown at 37° C. to an OD of 0.8, after which they were induced with 0.5 mM IPTG. […]
To determine binding of SAHBs to VLCAD, fluorinated SAHB (25 μM) and VLCAD (0-125 μM) were mixed together in VLCAD FPLC buffer including 10% D2O to a final volume of 500 μL. […] The extent to which VLCAD bound the peptide was determined by measuring the peak width at half height (ν1/2) of the peptide ^19F signal. […] MCL-1ΔNΔC binding to SAHBs causes a change in the ^19F chemical shift of the peptide resulting in two peptide signals (instead of peak broadening), so extent of binding was quantified by measuring the peak height of “unbound” peptide relative to the bound peptide signal.

VLCAD = target: T2, VLCAD (Homo sapiens, UniProt P49748); test: Biolayer interferometry; format: binding; settings: Biotin-PEG peptide immobilized on streptavidin sensors
T2 construct: 10x His (N); made in house; host or cells: E. coli BL21(DE3), pET19b
T2 sequence (P49748 40-655): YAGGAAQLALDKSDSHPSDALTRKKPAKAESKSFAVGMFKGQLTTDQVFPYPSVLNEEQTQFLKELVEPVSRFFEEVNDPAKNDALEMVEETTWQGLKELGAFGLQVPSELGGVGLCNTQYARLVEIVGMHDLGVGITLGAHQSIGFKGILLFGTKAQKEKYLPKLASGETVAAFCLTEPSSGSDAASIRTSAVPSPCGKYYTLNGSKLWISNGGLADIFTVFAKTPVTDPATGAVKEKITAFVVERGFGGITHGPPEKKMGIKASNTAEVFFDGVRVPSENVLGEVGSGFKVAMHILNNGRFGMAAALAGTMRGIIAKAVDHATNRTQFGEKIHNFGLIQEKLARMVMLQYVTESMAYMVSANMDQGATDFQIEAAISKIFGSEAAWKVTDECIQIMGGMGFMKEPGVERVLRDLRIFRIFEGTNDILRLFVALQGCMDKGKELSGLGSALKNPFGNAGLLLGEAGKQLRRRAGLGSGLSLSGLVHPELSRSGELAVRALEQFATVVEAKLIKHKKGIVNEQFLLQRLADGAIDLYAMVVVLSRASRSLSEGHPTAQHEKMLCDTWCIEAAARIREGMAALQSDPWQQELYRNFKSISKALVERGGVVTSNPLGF
Protocol: as §1
VLCAD. Mature human VLCAD lacking its cleavable leader sequence (aa 40-655) (NP_000009.1) was subcloned into the pET19b vector (Novagen) using NdeI and XhoI restriction sites. Correct insertion was confirmed by DNA sequencing. The 10× His-tagged VLCAD construct was expressed in BL21(DE3) E. coli, and once cells reached an OD of 0.8 after growing at 37° C., they were induced with 0.5 mM […] (IPTG) (Gold Biotechnology I2481C) at 37° C. for 4 hours. Bacterial pellets were resuspended in lysis buffer (500 mM NaCl, 50 mM HEPES, 5% glycerol, pH 7.5, complete protease inhibitor tablet) and lysed by microfluidization (M-110L; Microfluidics). […]
BLI binding measurements were performed using an Octet Red384 System (ForteBio). […] Binding parameters were calculated using the accompanying Octet Software version 9 (ForteBio).

MCL-1ΔNΔC [2] = target: T1, MCL-1ΔNΔC; test: Biolayer interferometry; format: binding; settings: Biotin-PEG peptide immobilized on streptavidin sensors

With “MCL-1 SAHBD: hydrocarbon-stapled peptide mimicking the MCL-1 BH3 domain (Stabilized Alpha-Helix of BCL-2 Domain), SEQ ID NO:19 (RKALETLRRVGDGV[S5]RNH[S5]TAF; staple 15-19)” the “19F NMR binding to MCL-1ΔNΔC (chemical shift of the peptide peak)” value (MCL-1ΔNΔC [1]) was “binds directly”, the “biolayer interferometry association with VLCAD” value (VLCAD) was “engages VLCAD” and the “biolayer interferometry association with MCL-1” value (MCL-1ΔNΔC [2]) was “bind to MCL-1”.
